In publication PMC11988251:

Target: HuROR2-mFc
Assay: ELISA

EC50 (pH 6.0, 2.5 g/L sodium bicarbonate) [µg/mL]	EC50 (pH 7.4, 2.5 g/L sodium bicarbonate)	EC50 (pH 6.0, 1.26 g/L sodium bicarbonate, 0.09 g/L L-lactic acid) [µg/mL]	EC50 (pH 7.4, 1.26 g/L sodium bicarbonate, 0.09 g/L L-lactic acid)	Substance
0.0563	no meaningful EC50 could be calculated			BA3021
		0.0119	no meaningful EC50 could be calculated	BA302
